# In patent US20230303681A1 (published 2023):
# Numbering of substitutions follows the chain as printed. Where “and” joins values, the source holds several entries; their conditions need not be identical. Equal entries are not always repeated.
# B1: anti-TMEM106B antibody TM-5 (antibody, V domains shown)
# VH: QVQLQQSGTELARPGASVKVSCKASGYIFTTYGITWVKQRGGQGLEWIGEIYPRSDNTYYNEKFKDKATLTADKSSSTAYMELRSLTSEDSAVYFCARSKGSGTGDYWGQGTTVTVSS
# VL: DIQMTQSPASLSASVGETVTITCRASENIYIYLAWYQQKQGKTPQLLVYNGKMLAENVPSRFSGSGSGTQFSLKINSLQPEDFGSYYCQHHYGSPPAFGAGTKLELK
# B2: anti-TMEM106B antibody TM-27 (antibody, V domains shown)
# VH: QVQLQQSGAELVRPGTSVKVSCKASGYALTNYLIEWVKQRPGQGLEWIGVINPGSGSTKYNEKFKGKATLTADKSSSTAYMQLSSLTSEDSAVYFCARIIYDHDWYFDVWGTGTTVTVSS
# VL: QIVLTQSPAIMSASPGEKVTISCSASSSISYMYWYQQKPGSSPKPWIYRTSTLASGVPARFSGSGSGTSYSLTISSMEAEDAATYYCQQYHSYPRTFGGGTKLEIK
# B3: anti-TMEM106B antibody TM-13 (antibody, V domains shown)
# VH: QVQLQQSGAELVKPGASVKMSCKASGYTFTTFPIEWMKQSHGKGLEWIGNFHPYNDDTKYNEKFKGKATLTVDKSSSTVYLDLSRLTSDDSAVYYCARYFYGGMDYWGQGTSVTVSS
# VL: DIQMTQSPASLSVSVGETVTITCRASENIYSSLGWYQQKQGESPQLLVFAATNLADGVPSRFSGSGSGTQYSLKINSLQSEDFGTYYCQHLWSIPWTFGGGTRLEIK
# B4: anti-TMEM106B antibody TM-25 (antibody, V domains shown)
# VH: EVQLVESGGDLVKPGGSLRLSCAASGFTFSGYGMSWIRQTPDKRLEWVATISSGGRYTVYPDSVKGRFTMSRDNVKNTLYLQMSSLKSEDTALYYCARDNFYSYAMDYWGLGTSVTVSA
# VL: DIVMTQAAFSNPVTLGTSASISCRSSKSLLHSNGITYLFWYLQKPGQSPQLLIYQMSNLASGVPDRFSSSGSGTDFTLRISRVEAEDVGVYYCAQNLELWTFGGGTKLEIK
# B5: anti-TMEM106B antibody TM-28 (antibody, V domains shown)
# VH: EVQLQQSGPVLVKPGPSVKISCMASVFTFNDYYIHWVKQSHGKSLEWIGLVYPYNGGTNYNQNFKGKATLTVDTSSRTAYMELNSLTSEDSAVYYCARSYFSNPIGYWGQGTLVTVSE
# VL: DIVMTQSPSSLSVSVGEKVTVSCKSSQSLLNSGNQKNYLAWYQQKPGQPPKLLIYGASTRESGVPDRFTGSGSGTDFTLTISSVQAEDLAVYYCQNDHSYPLTFGAGTKLELK
# B6: anti-TMEM106B antibody TM-29 (antibody, V domains shown)
# VH: QVQLRQSGAELVRPGASVKLSCKASGYTFTDYYINWVKQRPGQGLEWIARIYPGSGYTYYNEKFKGKATLTAEGSSNTAYMQLSSLTSEDSAVYFCANHYTNPFAYWGQGTLVTVSA
# VL: DIVMTQAAFSNPVTLGTSASISCRSSKSLLHYNGITYLYWYLQKPGQSPQLLIYQMSNLASGVPDRFSSSGSGTDFTLRISRVEAEDVGVYYCAQNLELPYTFGGGTKLEIK
# B7: anti-TMEM106B antibody TM-3 (antibody, V domains shown)
# VH: QVTLKESGPGIVQPSQTLSLTCSFSGFSLNTLGRGVGWIRQPSGKGLEWLAKIWWNDDKFYYPALKSRLTISKDTSKNQIFLKIANVDTADSATYYCARIAGGTGAAYWGQGTTLTVSS
# VL: B6 VL with Y32S, Y54S, N58S, S70G, Y91F, Y101W, I111L
# B8: anti-TMEM106B antibody TM-23 (antibody, V domains shown)
# VH: QVQLQQSGAELIRPGTSVKVSCKASGYAFTNYLIEWVKKRPGQGLEWIGVINPGSGITNYNEKFKGKATLTADKSSSTAYMQLSSLTSEDSAVYFCARSDFITTVVADYWGQGTTVTVSS
# VL: DIVVTQTPLSLPVSFGDQVSISCRSSQSLTNYYGNTYLSWYLHKPGQSPQLLIYGISNRFSGVPDRFSGSGSGTDFTLKISTIKPEDLGMYYCLQGTHQPRTFGGGTKLEIK
# B9: anti-TMEM106B antibody TM-26 (antibody, V domains shown)
# VH: B8 VH
# VL: B8 VL
# Target: T1, human TMEM106B (human, UniProt Q9NUM4 2-274)
# T1 construct: Full-length, on transiently transfected HEK293 cells, or natively expressed on HeLa, U251 and A549 cells; also called huTMEM106B; huTMEM
# Assay: FACS A549
# Description: (§1) All cells were cultured in either T75 or T150 flasks. […] The enzyme was quenched by addition of fresh media, and the cells were then distributed into 96-well plates for FACS analysis.
# (§2) FACS analysis was performed as follows. Each cell type was aliquoted in 96-well round bottom plates (2x10^5 cells per well), washed once with FACS buffer (PBS + 2% FBS + 1 mM EDTA), and incubated with 50 µL of hybridoma supernatant or purified antibody (10 µg/ml in FACS buffer) on ice for 1 hour. […] Following this secondary incubation, the cells were again washed 2x with ice-cold FACS buffer and resuspended in a final volume of 50 µL of FACS buffer + 0.25 µl/well propidium iodide (Fisher Scientific # BDB556463). Analysis was performed on a FACSCanto system (BD Biosciences) or iQue (Intellicyt), with sort gates drawn to exclude dead (i.e., propidium iodide positive) cells.
# (§3) Data is presented as mean fluorescence intensity (MFI).
row,Binder,MFI
1,B1,1170
2,B2,1930
3,B3,1260
4,B4,1700
5,B5,2000
6,B6,1410
7,B7,1800
8,B8,1090
9,B9,952

# Target: T1, human TMEM106B
# Assay: FACS HeLa;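 also: flow cytometry of cells incubated with hybridoma supernatant or purified antibody at 10 µg/ml for 1 h on ice, propidium iodide–positive dead cells gated out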
# Description: as §1, §2, §3
row,Binder,MFI
1,B1,1740
2,B2,2960
3,B3,1380
4,B4,2560
5,B5,2790
6,B6,1650
7,B7,2690
8,B8,308
9,B9,384

# Target: T1, human TMEM106B
# Assay: FACS U251;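 also: flow cytometry of cells exposed to antibody (purified at 10 µg/mL, or hybridoma supernatant) for 1 h on ice, with propidium iodide-positive dead cells gated out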
row,Binder,MFI
1,B1,866
2,B2,1320
3,B3,787
4,B4,1110
5,B5,998
6,B6,730
7,B7,1080
8,B8,278
9,B9,300

# Target: T2, mouse TMEM106B (mouse, UniProt Q80X71 2-275)
# T2 construct: on transiently transfected HEK293 cells, or natively expressed on mouse Neuro2a cells; also called moTMEM106B; murine TMEM106B
# Assay: FACS Neuro2a;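 also: flow cytometry of cells stained with antibody or hybridoma supernatant (purified antibody at 10 µg/ml) for 1 h on ice, propidium iodide–positive dead cells gated out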
# Description: as §1, §2, §3
row,Binder,MFI
1,B1,1610
2,B2,1580
3,B3,927
4,B4,354
5,B5,2740
6,B6,1480
7,B7,1980
8,B8,333
9,B9,324

# Target: T3, GST (Pierce) (UniProt P08515 1-218 = GST, limits assumed)
# T3 construct: control for the GST part of the fusion protein; also called GST protein; Glutathione-S-transferase
# Assay: ELISA, coated GST;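 also: ELISA on plates coated with GST alone at 1-10 µg/ml, antibodies applied at 100-1000x dilution, bound antibody detected by peroxidase substrate colour after acid stop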
row,Binder,binding result
1,B1,no binding
2,B2,no binding
3,B3,no binding
4,B4,no binding
5,B5,no binding
6,B6,no binding
7,B7,no binding
8,B8,no binding
9,B9,no binding

# Target: T1, human TMEM106B
# Assay: FACS A549, 1 ug/ml
# Description: (§4) Purified anti-TMEM106B antibodies were evaluated for their binding affinity to various TMEM106B-expressing cell lines including HEK293 transiently transfected with human/cyno/mouse TMEM106B, as well as HeLa cells and A549 cells. Antibodies tested for this experiment were mouse IgGs purified from hybridoma supernatant. Affinity binding to cells was determined as follows. Briefly, 1x10^5 cells were aliquoted per well in 96-well round bottom plates and incubated with 50 µL of purified anti-TMEM106B antibody at various concentrations (10x dilutions starting at 10 µg/ml) in FACS buffer (PBS + 2% FBS + 1 mM EDTA). […] Sorting was performed on a iQue (Intellicyt), with sort gates drawn to exclude dead (propidium iodide +) cells. Binding data was analyzed using median fluorescent intensity (MFI) and graphed in Prism. Values presented are MFI.
row,Binder,MFI
1,B1,1970
2,B2,431
3,B3,1950
4,B4,4530
5,B5,2630
6,B6,2480
7,B7,4840
8,B8,398
9,B9,380

# Target: T1, human TMEM106B
# Assay: FACS A549, 10 ug/ml
# Description: as §4
row,Binder,MFI
1,B1,4800
2,B2,622
3,B3,3890
4,B4,7000
5,B5,4350
6,B6,4200
7,B7,7670
8,B8,757
9,B9,509

# Target: T1, human TMEM106B
# Assay: FACS, HEK293 transfectants;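 as to fold over negative controls: hybridoma supernatants incubated 30 min on ice with human TMEM106B-expressing HEK293 cells, binding read as anti-mouse-APC median fluorescence on live cells, relative to secondary-antibody-only wells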;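 as to fold-change over parental HEK293: flow cytometry binding of hybridoma supernatants to HEK293 cells transiently expressing human, cyno or mouse TMEM106B, read as anti-mouse-APC median fluorescence, live cells only, 30 min on ice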
row,Binder,fold over negative controls [fold]
1,B1,> 2
2,B2,> 2
3,B3,> 2
4,B4,> 2
5,B5,> 2
6,B6,> 2
7,B7,> 2
8,B8,> 2
9,B9,> 2

# Target: T4, GST-fusion human TMEM106B truncated (human)
# T4 construct: also called GST-TMEM106B-truncated protein; GST-TMEM106B (truncated)
# Assay: array SPR, Ab immobilised;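 also: antibodies amine-coupled on an MX-96 chip, antigen flowed at 500 nM top concentration in 5-fold serial dilutions, GST alone run as nonspecific-binding control, duplicate measurements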
Binder,Kd,koff,kon
B1,1.4 nM and 1.8 nM,3.3e-05 s⁻¹ and 4.8e-05 s⁻¹,23000 M⁻¹ s⁻¹ and 26000 M⁻¹ s⁻¹
B2,16 nM and 18 nM,0.00048 s⁻¹ and 0.00068 s⁻¹,31000 M⁻¹ s⁻¹ and 39000 M⁻¹ s⁻¹
B3,2.4 nM and 2 nM,7e-05 s⁻¹ and 8.4e-05 s⁻¹,29000 M⁻¹ s⁻¹ and 42000 M⁻¹ s⁻¹
B4,1.5 nM and 2.6 nM,3.3e-05 s⁻¹ and 5.8e-05 s⁻¹,22000 M⁻¹ s⁻¹
B5,5.3 nM,7.2e-05 s⁻¹,14000 M⁻¹ s⁻¹
B6,3.5 nM and 5.2 nM,6.5e-05 s⁻¹ and 7.8e-05 s⁻¹,18000 M⁻¹ s⁻¹ and 15000 M⁻¹ s⁻¹
B7,1.7 nM and 2.1 nM,3.8e-05 s⁻¹ and 4.8e-05 s⁻¹,22000 M⁻¹ s⁻¹ and 23000 M⁻¹ s⁻¹
B8,12 nM and 26 nM,0.00045 s⁻¹ and 0.001 s⁻¹,36000 M⁻¹ s⁻¹ and 41000 M⁻¹ s⁻¹
B9,12 nM and 19 nM,0.00041 s⁻¹ and 0.00085 s⁻¹,34000 M⁻¹ s⁻¹ and 45000 M⁻¹ s⁻¹

# Target: T1, human TMEM106B
# Assay: FACS HEK+huTMEM, 10 ug/ml;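 also: purified mouse IgG antibodies at 10 µg/ml bound to HEK293 cells transiently expressing human TMEM106B, measured by flow cytometry as median fluorescence intensity of propidium iodide negative live cells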
row,Binder,MFI
1,B1,59300
2,B2,4140
3,B3,67500
4,B4,60300
5,B5,64800
6,B6,61200
7,B7,82300
8,B8,12400
9,B9,3850

# Target: T1, human TMEM106B
# Assay: FACS, HEK293 transfectants;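 as to fold over negative controls: hybridoma supernatants incubated 30 min on ice with human TMEM106B-expressing HEK293 cells, binding read as anti-mouse-APC median fluorescence on live cells, relative to secondary-antibody-only wells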;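 as to fold-change over parental HEK293: flow cytometry binding of hybridoma supernatants to HEK293 cells transiently expressing human, cyno or mouse TMEM106B, read as anti-mouse-APC median fluorescence, live cells only, 30 min on ice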
# Remark: another data set of the same source
# Description: (§5) For screening of the hybridoma cell culture supernatants, humanTMEM106B-transfected HEK293 cells were aliquoted in 96-well round bottom plates (2x10^5 cells per well) and incubated with 50 µL of hybridoma cell culture supernatant on ice for 30 minutes. […] Median fluorescence intensity (MFI) of anti-mouse-APC MFI on TMEM106B+ HEK293 cells was calculated for each clone, and those displaying a signal of at least 2-fold over background compared to a secondary-antibody only well were taken forward for further analysis and characterization.
row,Binder,fold-change over parental HEK293 [fold]
1,B1,11.4
2,B2,7.62
3,B3,36.7
4,B4,13
5,B5,19.7
6,B6,35.1
7,B7,24.4
8,B8,7.09
9,B9,11.8

# Target: T5, cynomolgus (cyno) TMEM106B (cynomolgus, UniProt Q9NUM4 2-274 (human entry))
# T5 construct: on transiently transfected HEK293 cells
# Assay: FACS, HEK293 transfectants;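 as to fold over negative controls: hybridoma supernatants incubated 30 min on ice with human TMEM106B-expressing HEK293 cells, binding read as anti-mouse-APC median fluorescence on live cells, relative to secondary-antibody-only wells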;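 as to fold-change over parental HEK293: flow cytometry binding of hybridoma supernatants to HEK293 cells transiently expressing human, cyno or mouse TMEM106B, read as anti-mouse-APC median fluorescence, live cells only, 30 min on ice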
# Description: as §5
row,Binder,fold-change over parental HEK293 [fold]
1,B1,37
2,B2,13.5
3,B3,55.5
4,B4,21.4
5,B5,33.7
6,B6,66
7,B7,40.5
8,B8,12.2
9,B9,18

# Target: T2, mouse TMEM106B
# Assay: FACS, HEK293 transfectants;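 as to fold over negative controls: hybridoma supernatants incubated 30 min on ice with human TMEM106B-expressing HEK293 cells, binding read as anti-mouse-APC median fluorescence on live cells, relative to secondary-antibody-only wells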;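 as to fold-change over parental HEK293: flow cytometry binding of hybridoma supernatants to HEK293 cells transiently expressing human, cyno or mouse TMEM106B, read as anti-mouse-APC median fluorescence, live cells only, 30 min on ice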
# Description: as §5
row,Binder,fold-change over parental HEK293 [fold]
1,B1,26.6
2,B2,3.32
3,B3,52.7
4,B4,2.87
5,B5,22.1
6,B6,44.6
7,B7,29.2
8,B8,4.46
9,B9,6.54

# Target: T1, human TMEM106B
# Assay: FACS HEK+huTMEM, 0.1 ug/ml;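 also: flow cytometry binding of purified mouse IgG antibodies to HEK293 cells transiently expressing TMEM106B, read as median fluorescence intensity with propidium iodide positive dead cells gated out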
row,Binder,MFI
1,B1,10800
2,B2,1700
3,B3,19100
4,B4,32800
5,B5,19800
6,B6,24400
7,B7,48700
8,B8,2410
9,B9,1960

# Target: T1, human TMEM106B
# Assay: FACS HEK+huTMEM, 1.0 ug/ml
# Description: as §4
row,Binder,MFI
1,B1,64500
2,B2,3040
3,B3,67100
4,B4,64700
5,B5,66400
6,B6,63300
7,B7,89100
8,B8,3900
9,B9,3340

# Target: T1, human TMEM106B
# Assay: FACS HEK+huTMEM, 0.01 ug/ml
# Description: as §4
row,Binder,MFI
1,B1,2180
2,B2,744
3,B3,2900
4,B4,4310
5,B5,3340
6,B6,4050
7,B7,7700
8,B8,1100
9,B9,1000
